# Patent US20250188153A1
# B1: MPE8 (antibody, V domains shown)
# VH: EVQLVESGGGLVKPGGSLRLSCAASGFTFSSYSMNWVRQAPGKGLEWVSSISASSSYSDYADSAKGRFTISRDNAKTSLFLQMNSLRAEDTAIYFCARARATGYSSITPYFDIWGQGTLVTVSS
# VL: QSVVTQPPSVSGAPGQRVTISCTGSSSNIGAGYDVHWYQQLPGTAPKLLIYDNNNRPSGVPDRFSASKSGTSASLAITGLQAEDEADYYCQSYDRSLSGVFGTGTKVTVL
# Legend:
# [1] = biological target: hMPV B2 F protein (his-tagged, not trypsin treated) (human metapneumovirus); assay: BLI epitope binning on hMPV B2 F; first mAb MPV314, second mAb MPE8
# [2] = biological target: hMPV B2 F protein (his-tagged, not trypsin treated) (human metapneumovirus); assay: BLI epitope binning on hMPV B2 F; first mAb MPV414, second mAb MPE8
# [3] = biological target: hMPV B2 F protein (his-tagged, not trypsin treated) (human metapneumovirus); assay: BLI epitope binning on hMPV B2 F; first mAb MPV477, second mAb MPE8
# [4] = biological target: hMPV B2 F protein (his-tagged, not trypsin treated) (human metapneumovirus); assay: BLI epitope binning on hMPV B2 F; first mAb MPV481, second mAb MPE8
# [5] = biological target: hMPV B2 F protein (his-tagged, not trypsin treated) (human metapneumovirus); assay: BLI epitope binning on hMPV B2 F; first mAb MPV483, second mAb MPE8
# [6] = biological target: hMPV B2 F protein (his-tagged, not trypsin treated) (human metapneumovirus); assay: BLI epitope binning on hMPV B2 F; first mAb MPV487, second mAb MPE8
# [7] = biological target: hMPV B2 F protein (his-tagged, not trypsin treated) (human metapneumovirus); assay: BLI epitope binning on hMPV B2 F; first mAb MPV488, second mAb MPE8
# [8] = biological target: hMPV B2 F protein (his-tagged, not trypsin treated) (human metapneumovirus); assay: BLI epitope binning on hMPV B2 F; first mAb MPV503, second mAb MPE8
binder,measurement,setting,value
B1,% binding of the second mAb after the first mAb,[1],4%
same,% binding of the second mAb after the first mAb,[2],2%
same,% binding of the second mAb after the first mAb,[3],1%
same,% binding of the second mAb after the first mAb,[4],72%
same,% binding of the second mAb after the first mAb,[5],71%
same,% binding of the second mAb after the first mAb,[6],4%
same,% binding of the second mAb after the first mAb,[7],42%
same,% binding of the second mAb after the first mAb,[8],-1%
